# Assay results reported in PMC8571081.
# Key:
# [1] = target: Recombinant mouse IL-12Rβ2-Fc chimera protein (mouse) (UniProt P97378); assay: SPR; IL-23R-Fc and IL-12Rβ2-Fc captured on a Protein A chip (~150 RU); HIL-12 (0.3-5 nM) or HIL-23 (15-1000 nM) variants injected at 30 μl/min; 25 °C, PBS pH 7.4, 0.05% P20; multi-cycle; 1:1 binding model; Biacore X100
# [2] = target: Recombinant mouse IL-23R-Fc chimera protein (mouse) (UniProt Q8K4B4); assay: as above
# Sequence of UniProt Q8K4B4 (Q8K4B4 24-374, change not shown): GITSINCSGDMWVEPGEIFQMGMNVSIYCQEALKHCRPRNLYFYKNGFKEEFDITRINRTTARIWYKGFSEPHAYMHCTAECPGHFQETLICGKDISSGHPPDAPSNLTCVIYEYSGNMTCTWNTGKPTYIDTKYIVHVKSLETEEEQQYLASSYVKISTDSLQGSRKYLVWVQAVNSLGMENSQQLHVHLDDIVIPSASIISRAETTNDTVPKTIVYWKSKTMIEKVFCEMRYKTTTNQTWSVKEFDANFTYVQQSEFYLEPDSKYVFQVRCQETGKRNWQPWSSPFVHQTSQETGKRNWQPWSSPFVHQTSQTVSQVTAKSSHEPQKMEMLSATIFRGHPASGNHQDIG
# Sequence of UniProt P97378 (P97378 24-637, stated change not applied): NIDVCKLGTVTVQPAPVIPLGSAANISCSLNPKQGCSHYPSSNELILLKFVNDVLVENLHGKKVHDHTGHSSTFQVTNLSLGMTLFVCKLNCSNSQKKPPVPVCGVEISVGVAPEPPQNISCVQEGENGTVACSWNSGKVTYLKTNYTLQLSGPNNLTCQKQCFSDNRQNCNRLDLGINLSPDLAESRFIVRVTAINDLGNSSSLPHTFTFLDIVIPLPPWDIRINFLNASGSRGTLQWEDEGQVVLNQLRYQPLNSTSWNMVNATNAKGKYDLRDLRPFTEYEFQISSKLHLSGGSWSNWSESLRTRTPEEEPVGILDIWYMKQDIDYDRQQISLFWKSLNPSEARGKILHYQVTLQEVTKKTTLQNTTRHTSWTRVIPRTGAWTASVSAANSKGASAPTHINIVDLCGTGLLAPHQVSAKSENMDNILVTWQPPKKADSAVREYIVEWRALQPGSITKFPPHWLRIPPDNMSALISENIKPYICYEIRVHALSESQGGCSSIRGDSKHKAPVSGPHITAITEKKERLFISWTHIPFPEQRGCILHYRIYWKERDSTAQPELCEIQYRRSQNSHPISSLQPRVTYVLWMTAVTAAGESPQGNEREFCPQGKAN
Kd [1],koff [1],kon [1],Kd [2],koff [2],kon [2],Substance
0.84 nM,0.0027 s⁻¹,3.2e+06 M⁻¹ s⁻¹,–,–,–,"HIL-12D36K/W37K/T38K, purified with Twin-Strep-tag (ligand)"
0.987 nM,0.0019 s⁻¹,1.9e+06 M⁻¹ s⁻¹,–,–,–,"murine Hyper-IL-12 (HIL-12), purified with Twin-Strep-tag (ligand)"
–,–,–,40 nM,0.0012 s⁻¹,30000 M⁻¹ s⁻¹,"murine Hyper-IL-23 (HIL-23), purified with Twin-Strep-tag (from UniProt P43432 23-335) (ligand)"
–,–,–,57 nM,0.0011 s⁻¹,19000 M⁻¹ s⁻¹,"HIL-23D36K/W37K/T38K, purified with Twin-Strep-tag (from UniProt P43432 23-335) (ligand)"
